Measured values published in PMC5550728.

Molecular target: mouse Cav1.3 α1 subunit expressed in HEK cells (mouse) (UniProt Q99246)
Sequence (Q99246 whole entry): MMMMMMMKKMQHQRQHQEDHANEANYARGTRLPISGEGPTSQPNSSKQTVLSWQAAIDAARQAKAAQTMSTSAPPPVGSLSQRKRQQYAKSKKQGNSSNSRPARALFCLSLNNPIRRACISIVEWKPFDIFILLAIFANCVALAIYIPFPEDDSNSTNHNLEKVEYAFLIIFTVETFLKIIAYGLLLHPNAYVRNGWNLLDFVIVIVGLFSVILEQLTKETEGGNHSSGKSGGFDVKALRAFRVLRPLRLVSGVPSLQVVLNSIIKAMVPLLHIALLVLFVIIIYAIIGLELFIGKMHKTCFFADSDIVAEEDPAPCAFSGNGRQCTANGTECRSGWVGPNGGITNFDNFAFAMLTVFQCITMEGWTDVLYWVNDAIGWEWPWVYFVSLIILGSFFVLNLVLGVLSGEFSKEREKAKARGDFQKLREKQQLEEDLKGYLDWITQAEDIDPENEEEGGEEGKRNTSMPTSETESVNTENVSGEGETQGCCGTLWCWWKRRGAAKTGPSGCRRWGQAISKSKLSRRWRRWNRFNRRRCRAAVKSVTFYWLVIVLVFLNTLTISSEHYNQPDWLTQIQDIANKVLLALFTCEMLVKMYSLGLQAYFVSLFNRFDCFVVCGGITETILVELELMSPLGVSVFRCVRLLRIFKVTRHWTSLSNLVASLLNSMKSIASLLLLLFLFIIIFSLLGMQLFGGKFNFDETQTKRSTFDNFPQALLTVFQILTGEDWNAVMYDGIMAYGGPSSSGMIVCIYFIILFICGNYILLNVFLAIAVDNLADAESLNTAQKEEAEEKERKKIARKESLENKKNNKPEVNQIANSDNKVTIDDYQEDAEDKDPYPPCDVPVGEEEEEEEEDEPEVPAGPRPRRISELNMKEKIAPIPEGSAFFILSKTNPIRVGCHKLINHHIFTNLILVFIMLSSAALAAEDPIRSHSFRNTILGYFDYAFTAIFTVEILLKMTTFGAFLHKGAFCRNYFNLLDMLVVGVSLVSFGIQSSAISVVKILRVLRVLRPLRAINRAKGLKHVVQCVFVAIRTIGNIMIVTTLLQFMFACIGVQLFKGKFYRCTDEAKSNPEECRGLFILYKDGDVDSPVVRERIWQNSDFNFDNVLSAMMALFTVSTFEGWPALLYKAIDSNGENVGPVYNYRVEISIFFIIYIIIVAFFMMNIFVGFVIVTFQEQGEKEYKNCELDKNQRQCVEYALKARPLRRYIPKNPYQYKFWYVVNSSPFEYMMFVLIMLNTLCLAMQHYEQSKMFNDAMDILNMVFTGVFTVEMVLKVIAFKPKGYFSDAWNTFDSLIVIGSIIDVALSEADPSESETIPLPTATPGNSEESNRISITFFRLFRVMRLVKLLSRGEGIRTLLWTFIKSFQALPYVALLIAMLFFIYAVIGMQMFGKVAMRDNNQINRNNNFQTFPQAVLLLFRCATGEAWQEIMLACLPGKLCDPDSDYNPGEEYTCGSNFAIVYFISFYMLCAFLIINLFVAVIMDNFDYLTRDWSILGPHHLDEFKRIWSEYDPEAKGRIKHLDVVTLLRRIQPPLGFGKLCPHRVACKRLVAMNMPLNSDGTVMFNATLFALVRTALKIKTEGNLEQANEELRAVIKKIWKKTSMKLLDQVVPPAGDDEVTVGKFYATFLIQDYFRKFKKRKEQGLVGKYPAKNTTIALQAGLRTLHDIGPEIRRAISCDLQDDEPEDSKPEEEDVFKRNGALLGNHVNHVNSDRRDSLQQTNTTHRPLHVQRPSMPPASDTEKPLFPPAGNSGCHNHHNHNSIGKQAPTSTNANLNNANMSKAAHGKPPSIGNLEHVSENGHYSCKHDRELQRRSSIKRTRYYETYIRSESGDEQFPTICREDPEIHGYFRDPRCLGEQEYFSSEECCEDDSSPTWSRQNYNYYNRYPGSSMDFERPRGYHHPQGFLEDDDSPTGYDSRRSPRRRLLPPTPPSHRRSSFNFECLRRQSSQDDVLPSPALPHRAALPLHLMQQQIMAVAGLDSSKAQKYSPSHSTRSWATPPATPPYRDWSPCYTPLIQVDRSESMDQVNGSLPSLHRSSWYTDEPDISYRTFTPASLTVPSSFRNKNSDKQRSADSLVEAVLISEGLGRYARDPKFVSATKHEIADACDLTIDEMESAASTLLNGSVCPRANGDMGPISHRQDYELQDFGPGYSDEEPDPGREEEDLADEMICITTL

B1: human RS1 (wild type) expressed in HEK cells (natural protein)
chain: STEDEGEDPWYQKACKCDCQGGPNALWSAGATSLDCIPECPYHKPLGFESGEVTPDQITCSNPEQYVGWYSSWTANKARLNSQGFGCAWLSKFQDSSQWLQIDLKEIKVISGILTQGRCDIDEWMTKYSVQYRTDERLNWIYYKDQTGNNRVFYGNSDRTSTVQNLLRPPIISRFIRLIPLGWHVRIAIRMELLECVSKCA
- shift of the current-membrane voltage relationship (voltage-dependent activation) of Cav1.3-LTCCs on co-transfection with RS1, HEK cells: -10 mV
